Laboratory results: PMC4148589

Target: CaV1.1 chimera containing the I–II loop of the CaV2.1 α1A subunit (pc-α1SI–IIA)
Assay: FRAP

Chain of skeletal muscle β1a subunit, GFP-tagged (pcDNA3-β1a-GFP) (P19517 whole entry): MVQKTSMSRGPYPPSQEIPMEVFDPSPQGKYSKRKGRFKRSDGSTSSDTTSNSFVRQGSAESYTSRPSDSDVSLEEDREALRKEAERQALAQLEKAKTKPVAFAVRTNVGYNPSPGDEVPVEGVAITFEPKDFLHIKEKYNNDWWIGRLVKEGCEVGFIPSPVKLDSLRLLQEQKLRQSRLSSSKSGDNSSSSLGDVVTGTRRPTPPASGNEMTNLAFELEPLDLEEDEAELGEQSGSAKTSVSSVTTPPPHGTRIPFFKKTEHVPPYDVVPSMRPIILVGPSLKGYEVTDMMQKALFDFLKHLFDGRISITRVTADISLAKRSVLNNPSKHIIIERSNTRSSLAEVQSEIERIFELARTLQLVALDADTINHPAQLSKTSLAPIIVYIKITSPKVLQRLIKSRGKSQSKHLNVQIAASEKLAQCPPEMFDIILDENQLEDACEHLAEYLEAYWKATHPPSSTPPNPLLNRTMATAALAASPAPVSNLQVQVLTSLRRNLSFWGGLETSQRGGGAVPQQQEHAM

R75 (fractional fluorescence recovery 75 s after bleaching): 20.5%
Substance: skeletal muscle β1a subunit, GFP-tagged (pcDNA3-β1a-GFP) (from UniProt P19517 1-524) (natural protein)
